The values below come from PMC4749968, “Nanocaged enzymes with enhanced catalytic activity and increased stability against protease digestion” (Nature Communications, 2016).

Data set [1] concerns T1, LDH.
T1 construct: gene LDHA
To be noted: read-out: Free enzymes / Km; free enzyme; 1x TBS with 1 mM MgCl2, pH 7.5 (most assays; details in supplement).

For data set [2], the system named is T2, MDH.
T2 construct: gene MDH2
To be noted: read-out: Free enzymes / Km; free enzyme; 1x TBS with 1 mM MgCl2, pH 7.5 (most assays; details in supplement).

In data set [3] the test system is O=c1ccc2nc3ccc(O[C@@H]4O[C@H](CO)[C@H](O)[C@H](O)[C@H]4O)cc3oc-2c1. Briefly: purified protein. To be noted: free enzyme; kcat not calibrated; conditions in supplement.
Substrate in data set [4]: CCn1c(=NN=c2sc3cc(S(=O)(=O)O)ccc3n2CC)sc2cc(S(=O)(=O)O)ccc21
Briefly: Michaelis-Menten kinetics, plate reader absorbance. Particulars: free enzyme, 1x TBS with 1 mM MgCl2, pH 7.5 (most assays; details in supplement). Format: biochemical, Armoracia rusticana. The text has this:
Michaelis-Menten kinetics, plate reader absorbance on HRP

On to `NC(=O)C1=CN([C@@H]2O[C@H](COP(=O)(O)OP(=O)(O)OC[C@H]3O[C@@H](n4cnc5c(N)ncnc54)[C@H](O)[C@@H]3O)[C@@H](O)[C@H]2O)C=CC1` [NADH], for which the Km was found to be 7.2 ± 1.3 µM in data set [1] and 180 ± 50 µM in data set [2].

In general, kcat refers to the maximal rate divided by the concentration of active sites. β-Gal (Escherichia coli K-12): in data set [3], the Km amounted to 58.7 ± 16.0 µM and the kcat was 8.5 ± 0.6 s⁻¹.

B1: HRP (Armoracia rusticana) (protein)
chain: QLTPTFYDNSCPNVSNIVRDTIVNELRSDPRIAASILRLHFHDCFVNGCDASILLDNTTSFRTEKDAFGNANSARGFPVIDRMKAAVESACPRTVSCADLLTIAAQQSVTLAGGPSWRVPLGRRDSLQAFLDLANANLPAPFFTLPQLKDSFRNVGLNRSSDLVALSGGHTFGKNQCRFIMDRLYNFSNTGLPDPTLNTTYLQTLRGLCPLNGNLSALVDFDLRTPTIFDNKYYVNLEEQKGLIQSDQELFSSPNATDTIPLVRSFANSTQTFFNAFVEAMDRMGNITPLTGTQGQIRLNCRVVNSNS
notes: 44 kDa
On to B1, for which, in data set [4], the Km was 2,600±400 μM and the kcat came to 59 ± 5 s⁻¹.
